Our source for the stoichiometry N values is PMC2191818.

This test concerns the target HLA-B*0702 class I heavy chain (free heavy chain, C1R transfectant B7C1R) (human). Description: nonreducing SDS-PAGE of immunoprecipitates.

The substance “HLA-B*0702 class I heavy chain (free heavy chain, C1R transfectant B7C1R) (natural protein)” had a stoichiometry N of 2.
